According to US20050085629A1, “Utilization of FPRL1 as a functional receptor by serum amyloid A (SAA)” (priority 1999, published 2005):

Key:
FPRL1 [1] = target: T1, FPRL1 (Homo sapiens, UniProt P25090); assay: Calcium mobilization (Fura-2) in FPRL1 transfected HEK 293 cells (FPRL1/293 cells); type: cell-based
T1 sequence (P25090 1-351): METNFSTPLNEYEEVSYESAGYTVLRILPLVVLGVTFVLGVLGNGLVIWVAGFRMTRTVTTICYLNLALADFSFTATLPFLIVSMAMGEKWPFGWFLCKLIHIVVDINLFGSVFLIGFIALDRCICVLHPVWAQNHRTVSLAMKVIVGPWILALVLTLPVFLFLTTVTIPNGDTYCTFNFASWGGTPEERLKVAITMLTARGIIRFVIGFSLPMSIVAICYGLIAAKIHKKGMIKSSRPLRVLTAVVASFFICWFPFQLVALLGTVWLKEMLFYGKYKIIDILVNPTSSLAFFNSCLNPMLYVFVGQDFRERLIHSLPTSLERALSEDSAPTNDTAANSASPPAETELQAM

human monocytes [2] = assay: Cross-desensitization of Ca2+ mobilization in human monocytes (and neutrophils); type: cell-based
FPRL1 [3] = target: T1, FPRL1; assay: Chemotaxis of FPRL1/293 cells (48-well microchemotaxis chamber); type: cell-based; settings: for agonist activity on FPRL1: concluded from chemotaxis experiments
FPRL1 [4] = target: T1, FPRL1; assay: 125I-SAA ligand binding to FPRL1/293 cells
Method: (§1) rhSAA (20: g) was radio-iodinated on tyrosine and lysine residues with the chloramine T method and the specific activity of the labeled SAA was 5.8 mCi/mg (courtesy of J. Dobbs, SAIC Frederick, NCI-FCRDC, Frederick, Md.). A constant concentration of 16 nM ^125I-SAA was incubated for 20 min at 37° C. with human monocytes or 293 cells transfected with chemoattractant receptor cDNAs (1.5-2×10^6/sample, in 200: l RPMI1640, 1% BSA, 0.05% NaN3) in the presence of increasing concentrations of unlabeled SAA. After incubation, the cells were washed once with ice-cold PBS then were layered onto a 10% sucrose/PBS cushion in Eppendorf tubes. The cells were centrifuged at 10,000 g for 1 min and the tips of the tubes containing cell pellets were cut and measured for radioactivity in a γ-counter. The binding data were analyzed and plotted with a computer-aided program LIGAND (P. Munson, Division of Computer Research and Technology, NIH, Bethesda, Md.). The level of specific binding was determined by subtraction of non-specific binding (cpm on cells in the presence of 1: M unlabeled SAA) from the total binding (cpm on cells in the absence of unlabeled SAA). Experiments were performed at least 5 times which yielded similar results.

human monocytes [5] = assay: 125I-SAA ligand binding to human monocytes
Excerpt: GLPEKY. (SEQ. ID. No. 1). This rhSAA corresponds to SAA-1α, one of the major SAA isoforms in the serum, except for the addition of a methionine at the NH2 terminus as well as the substitution of aspartic acid for asparagine at position 60, which appears in the SAA2 isoform (reviewed in ref. Steinkasserer et al., Biochem. J., 268:187-193 (1990)). rhSAA at concentrations used in the study was negative for endotoxin as assessed by Limulus amebocyte lysate assays (sensitivity: 0.06 IU/ml. Bio Whittaker, Walkersville, Md.). High density lipoprotein (HDL) was purchased from Sigma (St. Louis, Mo.). […]
rhSAA (20: g) was radio-iodinated on tyrosine and lysine residues with the chloramine T method and the specific activity of the labeled SAA was 5.8 mCi/mg (courtesy of J. Dobbs, SAIC Frederick, NCI-FCRDC, Frederick, Md.). […] The cells were centrifuged at 10,000 g for 1 min and the tips of the tubes containing cell pellets were cut and measured for radioactivity in a γ-counter. The binding data were analyzed and plotted with a computer-aided program LIGAND (P. Munson, Division of Computer Research and Technology, NIH, Bethesda, Md.). The level of specific binding was determined by subtraction of non-specific binding (cpm on cells in the presence of 1: M unlabeled SAA) from the total binding (cpm on cells in the absence of unlabeled SAA). […]

neutrophils = assay: 125I-SAA ligand binding to neutrophils; parameters: species or system human
[6] = target: human peripheral blood CD3+ T lymphocytes; assay: 125I-SAA binding to human peripheral blood CD3+ T lymphocytes
FPR [7] = target: T2, FPR (Homo sapiens, UniProt P21462); assay: Radiolabeled SAA binding to cells transfected to express FPR; parameters: expressed in transfected cells; settings: cells transfected to express the receptor
T2 sequence (P21462 1-350): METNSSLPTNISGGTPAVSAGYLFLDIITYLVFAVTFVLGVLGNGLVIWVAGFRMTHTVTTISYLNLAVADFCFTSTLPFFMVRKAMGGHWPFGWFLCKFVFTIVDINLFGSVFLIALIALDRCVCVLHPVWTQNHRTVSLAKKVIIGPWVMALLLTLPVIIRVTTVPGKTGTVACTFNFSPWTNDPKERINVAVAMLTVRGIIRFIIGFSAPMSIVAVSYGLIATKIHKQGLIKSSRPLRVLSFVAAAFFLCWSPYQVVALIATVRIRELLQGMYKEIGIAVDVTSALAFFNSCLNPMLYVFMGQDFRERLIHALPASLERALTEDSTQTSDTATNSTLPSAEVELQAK
Method: as §1

FPR [8] = target: T2, FPR; settings: FPR expressing 293 cells, FIG. 2C
leukocyte = settings: from Badolato et al. 1994, Xu et al. 1995, Badolato et al. 1995; cited from earlier work
FPR [9] = target: T2, FPR; assay: Chemotaxis of FPR expressing ETFR cells (48-well microchemotaxis chamber); type: cell-based; parameters: expressed in transfected cells; host or cells: ETFR cells (rat basophil leukemia cell line), gift from Drs; H. Ali and R. Snyderman; settings: FIG. 3B
[10] = FPRL1/293 cells, commercially available LXA4 (Biomol)
[11] = FPRL1/293 cells pretreated with toxin

CSCC[C@H](NC=O)C(=O)N[C@@H](CC(C)C)C(=O)N[C@@H](Cc1ccccc1)C(=O)O [fMLP, N-formyl-methionyl-leucyl-phenylalanine]
desensitization of Ca2+ flux response to SAA by prior fMLP (FPRL1 [1]; FPRL1/293 cells, sequential stimulation, fMLP at 100 fold excess of SAA): only partially desensitized | desensitization of SAA-induced Ca2+ mobilization (human monocytes [2]; fMLP 10^-3 M = 1 mM, monocytes, FIG. 1C): completely desensitized | desensitization of SAA-induced Ca2+ mobilization (human monocytes [2]; fMLP at 100 nM, monocytes, FIG. 1B): partial desensitizing effect | attenuation of subsequent cell response (Ca2+) to SAA (human monocytes [2]; fMLP at relatively high concentrations (10: M and more), monocytes and neutrophils): able to attenuate a subsequent cell response to SAA | cell migration in response to stimulant (FPRL1 [3]; FPRL1/293 cells, wide range of concentrations, FIG. 3A): failed to migrate | agonist activity on FPRL1 (FPRL1 [3]): partial agonist | competition with 125I-SAA for binding (FPRL1 [4]; unlabeled fMLP at high concentrations (≧10: M), FPRL1/293 cells, FIG. 4D): only partially competed | competition with 125I-SAA for binding (human monocytes [5]; unlabeled fMLP at high concentrations (≧10: M), FIG. 4C): only partially competed

CCCCC[C@H](O)/C=C/C=C\C=C\C=C\[C@@H](O)[C@@H](O)CCCC(=O)O [LXA4, lipoxin A4]
induction of Ca2+ flux (FPRL1 [1]; [10]): did not detect a significant induction | induction of chemotaxis (FPRL1 [3]; [10]): did not detect a significant induction | inhibition of SAA binding (FPRL1 [4]; phagocytes or FPRL1/293 cells): nor did we observe inhibition

pertussis toxin
effect of cell pretreatment on SAA induced Ca2+ mobilization (FPRL1 [1]; [11]): inhibited | effect of cell pretreatment on SAA induced chemotaxis (FPRL1 [3]; [11]): inhibited

B1: ^125I-SAA: rhSAA radio-iodinated on tyrosine and lysine residues with the chloramine T method (protein)
chain: MRSFFSFLGEAFDGARDMWRAYSDMREANYIGSDKYFHARGNYDAAKRGPGGVWAAEAISNARENIQRFFGRGAEDSLADQAANEWGRSGKDPNHFRPAGLPEKY
binding sites/cell (FPRL1 [4]; FPRL1/293 cells, FIG. 4A): 42000 binding sites/cell | Kd (neutrophils): 45 nM | specific binding (human monocytes [5]; FIG. 4B): specifically bound | Kd [6]: 300 nM | binding to FPR receptor (FPR [7]): not the FPR receptor

B2: serum amyloid A (protein, listed as Homo Sapiens)
chain: B1 chain
modifications: N-terminal methionine
notes: Recombinant human SAA from Pepro Tech; corresponds to SAA-1α with added NH2-terminal methionine and aspartic acid for asparagine at position 60
desensitization of Ca2+ flux response to fMLP by prior SAA (FPRL1 [1]; FPRL1/293 cells, sequential stimulation, 100 fold excess of fMLP): able to desensitize the cell response to a 100 fold excess of fMLP | EC50 (FPRL1 [1]; FPRL1 transfected cells (FPRL1/293 cells), FIG. 2B, read-out: EC50 for Ca2+ mobilization): 250 nM | desensitization of Ca2+ flux induced by chemokines (MCP-1, RANTES, MCP-3, MIP-1, IL-8, SDF-1) (human monocytes [2]; SAA at 1: M, monocytes or neutrophils): failked to desensitize | attenuation of cell response (Ca2+) to fMLP (human monocytes [2]; fMLP used at 100 nM, monocytes, FIG. 1A): did not attenuate the cell response | EC50 (FPRL1 [3]; FPRL1/293 cells, read-out: EC50 of migratory response (chemotaxis)): 200 nM | agonist activity on FPRL1 (FPRL1 [3]): full agonist activity | induction of Ca2+ mobilization (FPR [8]): not in FPR expressing cells | optimal concentrations to induce leukocyte migration, adhesion and tissue infiltration (leukocyte): 0.8-4 : M | cell migration in response to stimulant (FPR [9]): did not migrate
